Ends that are not written are not given here.
What was measured:
[1] = biological target: T1, Aβ1-42 (Homo sapiens, UniProt P05067); experiment: ThT fluorescence spectrophotometry of Aβ1-42 aggregation; format: biochemical; settings: Aβ1-42 11.07 μmol/L, peptide 44.3 μmol/L, 37° C., 24 h, PBS pH 7.4; x ± S
T1 construct: purchased Sigma, Inc. (US)
Procedure: 1.2 the Inhibition Effect of HPYD on Aβ Aggregation was Analyzed by ThT Fluorescence Spectrophotometry.
The degree of Aβ aggregation may be reflected by ThT fluorescence intensity. Aβ1-42 lyophilized powder was formulated in 50 mmol/L PBS phosphate buffer (pH 7.4) to obtain a solution in a concentration of 22.15 μmol/L. The polypeptides H102 and HPYD were also formulated in 50 mmol/L PBS phosphate buffer (pH 7.4) to obtain a solution in a concentration of 88.60 μmol/L. In the experiment, Aβ1-42 was mixed with H102 or HPYD in 1:1 volume ratio to a final concentration of 11.07 μmol/L and 44.3 μmol/L, respectively. […] ThT fluorescence intensity was measured by using VARIAN PTC-Au00-01058 fluorescence spectrophotometer at the excitation wavelength of 453 nm and emission wavelength of 478-486 nm. […]
The fluorescence intensity from the aging group (in which Aβ1-42 lyophilized powder was formulated in 50 mmol/L PBS phosphate buffer (pH 7.4) to obtain a solution in a concentration of 11.07 μmol/L, and the obtained solution was incubated at 37° C. for 24 hours) from which baseline fluorescence intensity was subtracted would be taken as 100%, and the inhibitory rate of the drug on Aβ1-42 in each group was calculated. […]
Inhibitory rate=(the relative fluorescence intensity of 1-β sheet blocking peptide/the relative fluorescence intensity of Aβ1-42)×100%

[2] = biological target: T1, Aβ1-42; experiment: Electron microscopy of Aβ1-42 fiber formation; format: biochemical; settings: for Aβ fibers observed by electron microscope: co-incubation with Aβ1-42 for 5 days at 37° C.
Procedure: 1.4 the Inhibition Effect of HPYD on Aβ Aggregation was Observed by Using Electron Microscope. Aβ1-42 solution in PBS phosphate buffer (11.07 μmol/L, 20 μl) was formulated as described in the above 1.2 section, and incubated alone at 37° C. for 5 days. Meanwhile, Aβ1-42 (22.15 μmol/L, 10 μl) was respectively co-incubated with […] or HPYD (88.61 μmol/L, 10 μl) under the same conditions for 5 days. 5 μl sample was taken from each group and dropped on the carbon support film on 300-mesh deionized copper grids, and then kept still at ambient temperature for 15 min. The samples were negatively stained in dark with 2% uranyl acetate for 2 min. After drying, the samples were observed using transmission electron microscope. In the above-mentioned studies, Aβ1-42 was used as negative control, and […] was used as positive control.

[3] = test system: APP/PS1 double transgenic mice; experiment: Morris Water Maze place navigation test; format: in vivo; settings: nasal 33 mg/ml at 5 μl/d, 30 days, n = 7
Procedure: (§1) 1.1 Animals: Fourteen APP/PS1 double transgenic mice were randomized into model group and drug administration group. Seven C57BL/6J mice with the same age and genetic background were used in normal control group. By way of nasal administration, 33 mg/ml HPYD in physiological saline solutions were administered to the mice in drug administration group in a rate of 5 μl/d using drug delivery devices, and the same volume of physiological saline solutions were administered nasally to the mice in normal control group and model group. The detection was performed 30 days after the administration.
(§2) 1.2 Morris Water Maze test: (1) Place Navigation: A platform is placed in a circle within the third quadrant of water maze. Each mouse swims twice (90 s/time) during the same time periods of every day for 5 days. The time required for a mouse's finding and climbing onto the platform, i.e. escape latency, is recorded. If the mouse could not find the platform within 90 s, it is guided to the platform and kept for 20 s. In this case, the escape latency is recorded as 90 s. (2) Spatial Probe: The platform is removed at day 6, and during the same time period, a water entry point is optionally selected for putting a mouse into water. Each mouse swims once (90 s/time). The swim track of the mouse within 90 s, the numbers of leaping over the hidden platform, the original swimming angle after water entry, and so on are recorded for testing the memory ability of the mouse.
1.3 Data processing: The data obtained is expressed in mean±standard deviation (χ±5). Statistical analysis was performed using statistical software SPSS16.0. One-way ANOVA and pairwise comparison were employed. P<0.05 represents that the difference is statistically significant.

[4] = biological target: T1, Aβ1-42; experiment: FT-IR spectrometry of Aβ1-42 secondary structure (β-sheet); format: biochemical; settings: co-incubation with Aβ1-42 at 37° C. for 72 h
Procedure: 1.3 the Inhibition Effect of HPYD on Aβ1-42 Aggregation was Observed by FT-IR Spectrometry.
22.15 μmol/L Aβ1-42 solution in PBS phosphate buffer was formulated in quadruplicate as described in the above 1.2 section. To two solutions, PBS phosphate buffer was added in equal volume respectively and incubated alone at 37° C. for 30 min (30 min, aging group) and 72 h (72 h, aging group). To the other two solutions, H102 (88.60 μmol/L) and HPYD (88.60 μmol/L) were added in equal volume respectively and co-incubated at 37° C. for 72 h. After incubation, each sample was vacuum lyophilized. Then, 3.5 μg of H102 and 3.7 μg of HPYD were respectively mixed with anhydrous potassium bromide (120-180 mg) thoroughly, and pressurized for 5 min by tablet machine to form potassium bromide tablet. The measurement and analysis were carried out by using Nicolet Magna 760 FT-IR instrument, with a resolution of 4 cm^−1 and a spectrum range of 3500-400 cm^−1. The amide I band spectrum at 1700-1600 cm^−1 was analyzed using Origin 8.0 software. The fitting range was expanded to 1750-1550 cm^−1 due to the complexity of the components in the samples and the effect of vibration peaks close to amide I band on the secondary structure.
In the above-mentioned studies, Aβ1-42 was used as negative control, and H102 was used as positive control.

[5] = test system: APP; experiment: Immunohistochemical staining of APP in brains of APP/PS1 double transgenic mice; format: in vivo; settings: nasal 33 mg/ml at 5 μl/d, 30 days, n = 7, x ± S
Procedure: as §1, with “control group. These mice were all purchased from the Experimental Animal Research Center of Peking Union Medical College, Chinese Academy of Medical Sciences. By way” for “control group. By way”, “administration group at a rate” for “administration group in a rate”, “detection was carried out 30 days” for “detection was performed 30 days”
(§3) 1.2 Drugs and reagents: Anti-Aβ1-42 antibody was purchased from Chemicon Inc. Anti-APP antibody, ready-to-use SABC Immunohistochemistry Staining Kit, DBA Color Development Kit and 0.1% polylysine were purchased from Wuhan Boster Biological Technology, Ltd. Other reagents have analytical purity.
(§4) 1.3 Immunohistochemical Staining: After Morris Water Maze was carried out in order to determine the learning ability of the experimental mice, the mice were anaesthetized by celiac injection with 0.1 kg/L chloral hydrate at a dose of 4 ml/kg. Rapid intubation was carried out via left ventricle. […]

[6] = test system: APP/PS1 double transgenic mice; experiment: Morris Water Maze spatial probe test; format: in vivo; settings: 30 days, n = 7
Procedure: as §1
as §2, with “(2) Spatial Probe: The platform is removed at day 6, and during the same time period, a water entry point is optionally selected for putting a mouse into water. Each mouse swims once (90 s/time).” left out, “mouse. […]” for “mouse.”

[7] = biological target: T2, Aβ (Homo sapiens, UniProt P05067); experiment: Immunohistochemical staining of Aβ in brains of APP/PS1 double transgenic mice; format: in vivo; parameters: from tissue; host or cells: brain (cortex, hippocampus CA1) of APP/PS1 double transgenic mice; settings: nasal 33 mg/ml at 5 μl/d, 30 days, n = 7, x ± S
Procedure: as §1, with “control group. These mice were all purchased from the Experimental Animal Research Center of Peking Union Medical College, Chinese Academy of Medical Sciences. By way” for “control group. By way”, “administration group at a rate” for “administration group in a rate”, “detection was carried out 30 days” for “detection was performed 30 days”
as §3, §4

[8] = biological target: T2, Aβ; settings: from Chinese patent CN 101531703A; cited from earlier work

| Sequence | Inhibitory rate (%) on Aβ1-42 aggregation [1] [%] | inhibition effect on Aβ aggregation by electron microscopy, compared with H102 ([2]; co-incubation with Aβ1-42 for 5 days) | Aβ fibers observed by electron microscope [2] | daily mean escape latency ([3]; 1 d) [s] | daily mean escape latency ([3]; 2 d) [s] | daily mean escape latency ([3]; 3 d) [s] | daily mean escape latency ([3]; 4 d) [s] | daily mean escape latency ([3]; 5 d) [s] | content of β-sheet (FT-IR, 1640-1620 cm^−1) [4] | transmittance in each wavenumber representing secondary structures, versus Aβ incubated alone for 72 h [4] | APP ratio of positive cells (%), Cortex [5] [%] | APP ratio of positive cells (%), Hippocampus CA1 area [5] [%] | numbers of leaping over the hidden platform (numbers) ([6]; day 6, 90 s, nasal 33 mg/ml at 5 μl/d) | Orientation angles (degree) ([6]; day 6, nasal 33 mg/ml at 5 μl/d) | Aβ ratio of positive cells (%), Cortex [7] [%] | Aβ ratio of positive cells (%), Hippocampus CA1 area [7] [%] | inhibitory rate on Aβ aggregation [8] [%] |
| --- | --- | --- | --- | --- | --- | --- | --- | --- | --- | --- | --- | --- | --- | --- | --- | --- | --- |
| HKQLPFYEED [HPYD] | 27.013 ± 0.018 | stronger inhibition effect on Aβ aggregation than H102 | significantly decreased and thinner | 88.127 ± 4.137 | 80.404 ± 15.646 | 67.740 ± 24.389 | 45.950 ± 19.211 | 24.974 ± 9.685 | lowest | significantly higher transmittance | 14.25 ± 3.25 | 12.75 ± 1.83 | 2.25 ± 1.258 | 40.478 ± 26.533 | 15.85 ± 2.77 | 11.09 ± 2.47 |  |
| HKQLPFFEED [H102, reference compound] | 14.168 ± 0.038 |  | Aβ fibers were significantly decreased |  |  |  |  |  |  | significantly higher transmittance |  |  |  |  |  |  | 27.84 |
